Measured values from patent US20210340273A1 (INHLBRX, published 2021).

Legend:
[1] = molecular target: T1, murine 5T4 construct (Mu), full 5T4 coding region fused to an intracellular Citrine tag, on transfected CHO … (mouse, UniProt Q9Z0L0 32-426); assay: flow cytometry on CHO cells transfected with the fully murine 5T4 construct (Mu, FIG. 26C)
T1 construct: also called fully murine construct; mouse 5T4 antigen; not shown: intracellular Citrine tag
T1 sequence: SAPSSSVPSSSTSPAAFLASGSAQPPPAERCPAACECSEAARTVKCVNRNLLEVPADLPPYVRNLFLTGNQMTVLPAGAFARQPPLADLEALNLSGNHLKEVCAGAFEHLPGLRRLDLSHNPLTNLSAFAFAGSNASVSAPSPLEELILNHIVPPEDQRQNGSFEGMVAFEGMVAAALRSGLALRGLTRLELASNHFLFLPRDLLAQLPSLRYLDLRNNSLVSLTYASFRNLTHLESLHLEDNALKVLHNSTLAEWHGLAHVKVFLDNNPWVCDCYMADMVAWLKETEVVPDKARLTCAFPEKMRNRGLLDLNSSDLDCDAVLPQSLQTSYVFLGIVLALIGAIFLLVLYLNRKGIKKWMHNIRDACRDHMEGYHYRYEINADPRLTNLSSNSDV
Text: (§1) In order to determine the location of the epitope recognized by these sdAbs, various mouse:human chimeric 5T4 constructs were generated, wherein various portions of the murine extracellular domain of 5T4 were replaced with that of human 5T4. The constructs were generated by grafting a nucleic acid sequence encoding the specific region of human 5T4 into the cognate region of mouse 5T4 in a mammalian expression plasmid encoding the full 5T4 coding region (extracellular domain, transmembrane domain, intracellular domain) fused to an intracellular Citrine tag. […] CHO cells were transiently transfected with these constructs to enable cell surface expression, and binding was monitored by flow cytometry.

[2] = molecular target: T2, human 5T4 (trophoblast glycoprotein), endogenous on the cell surface (human, UniProt Q13641 32-420); assay: flow cytometry, sdAb-Fc on 5T4 expressing T47D cells
T2 construct: also called TPBG; 5T4 oncofetal antigen
T2 sequence: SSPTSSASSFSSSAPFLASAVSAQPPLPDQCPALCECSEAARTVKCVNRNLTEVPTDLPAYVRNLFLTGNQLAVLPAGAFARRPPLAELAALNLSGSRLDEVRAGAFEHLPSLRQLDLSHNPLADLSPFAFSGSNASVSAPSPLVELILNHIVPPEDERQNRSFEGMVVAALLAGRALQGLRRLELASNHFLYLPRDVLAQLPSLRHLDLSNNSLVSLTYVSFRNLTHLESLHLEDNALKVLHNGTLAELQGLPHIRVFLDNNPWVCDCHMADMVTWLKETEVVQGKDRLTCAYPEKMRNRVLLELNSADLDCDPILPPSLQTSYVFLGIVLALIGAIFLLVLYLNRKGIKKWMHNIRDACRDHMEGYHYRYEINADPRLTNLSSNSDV

[3] = molecular target: T3, human 5T4 construct (Hu), full 5T4 coding region fused to an intracellular Citrine tag, on transfected CHO … (human, UniProt Q13641 32-420); assay: flow cytometry on CHO cells transfected with human, mouse and chimeric 5T4 constructs
T3 construct: also called fully human construct; not shown: intracellular Citrine tag
T3 sequence: T2 sequence
Text: as §1

binding result [1]: no binding
binding result [2]: binds
binding result [3]: binds
B1: hz14B5v17 sdAb-Fc (Fc fusion)
chain: EVQLVESGGGEVQPGGSLRLSCAASERPFGTYAMGWFRQAPGKERDLVAAVSRNAGASYYAESVKGRFTISRDNAKNTVYLQMSSLRAEDTAVYYCAARSAAYSRSSEVYTGKDEYYYWGQGTLVTVKP
notes: Humanized variant of 14B5, linked to a human Fc; not shown: human Fc
